Laboratory results as given in the Human Domainome abundance scans (Beltran et al. 2025).
± gives the uncertainty stated by the source.

B1: Zinc finger MYM-type protein 6, residues 427 to 504; numbered along this chain, O95789 (parent)
chain: KLKCQHCNHLFATKPELLFYKGKMFLFCGKNCSDEYKKKNKVVAMCDYCKLQKIIKETVRFSGVDKPFCSEVCKFLSA

Variants of: B1
Assay: abundance fitness (aPCA) (normalised: wild type 0, dead -1); higher = more abundant; growth selection in yeast, the domain comes from the species named
Conditions: Homo sapiens

Row | Variant | abundance fitness
1 | KLKCQHCNHLFATKPELLFYKGEMFLFCGKNCSDEYKKKNKVVAMCDYCKLQKIIKETVRFSGVDKPFCSEVCKFLSA [K23E] | 0.062 ± 0.042
2 | KLKCQHCNHLFATKPELGFYKGKMFLFCGKNCSDEYKKKNKVVAMCDYCKLQKIIKETVRFSGVDKPFCSEVCKFLSA [L18G] | -0.033 ± 0.032
3 | KLKCQHCNHLFATKPELTFYKGKMFLFCGKNCSDEYKKKNKVVAMCDYCKLQKIIKETVRFSGVDKPFCSEVCKFLSA [L18T] | -0.081 ± 0.04
4 | KLKCQHCNHLFATKPELLFYKGKMFLFCGKNCSDEYKKKSKVVAMCDYCKLQKIIKETVRFSGVDKPFCSEVCKFLSA [N40S] | 0.049 ± 0.053
5 | KLKCQHCNHLFATKPELLFYKGKMFLFCGKNCSDEYKKKNKVVAMCDYCKLQKQIKETVRFSGVDKPFCSEVCKFLSA [I54Q] | 0.52 ± 0.08
6 | KLKCQHQNHLFATKPELLFYKGKMFLFCGKNCSDEYKKKNKVVAMCDYCKLQKIIKETVRFSGVDKPFCSEVCKFLSA [C7Q] | -0.887 ± 0.071
7 | KLKCQHNNHLFATKPELLFYKGKMFLFCGKNCSDEYKKKNKVVAMCDYCKLQKIIKETVRFSGVDKPFCSEVCKFLSA [C7N] | -0.23 ± 0.12
8 | KLKCQHVNHLFATKPELLFYKGKMFLFCGKNCSDEYKKKNKVVAMCDYCKLQKIIKETVRFSGVDKPFCSEVCKFLSA [C7V] | -1.11 ± 0.084
9 | KLKCQHCNHLFATKPELLFYKGKMFLFCGKNCSDEYKKKNKVVAMCDYCKLQKIIKETVRFSGVDKPFCSEVCKFLSM [A78M] | 0.774 ± 0.16
10 | KLKCQHCNHLFATKPELLFYKGKMFLFCGKNCSDEYKKKNKVVAMCDYCKLQKIIKETVRFSGVPKPFCSEVCKFLSA [D65P] | -0.339 ± 0.21
11 | KLKCQHCNHLFATKPELLFYKGKMFLFCGKNCSDEYKKKNKVVAMCDYCKLQKIIKETVRFSGVLKPFCSEVCKFLSA [D65L] | -0.105 ± 0.099
12 | KTKCQHCNHLFATKPELLFYKGKMFLFCGKNCSDEYKKKNKVVAMCDYCKLQKIIKETVRFSGVDKPFCSEVCKFLSA [L2T] | 0.125 ± 0.042
13 | KVKCQHCNHLFATKPELLFYKGKMFLFCGKNCSDEYKKKNKVVAMCDYCKLQKIIKETVRFSGVDKPFCSEVCKFLSA [L2V] | 0.01 ± 0.031
14 | KLKCQHCNHLFATKPELLFYKGKMFLFCGKNCSDEGKKKNKVVAMCDYCKLQKIIKETVRFSGVDKPFCSEVCKFLSA [Y36G] | -0.183 ± 0.029
15 | KLKCQHCNHLFATKPELLFYKGKMFLFCGKNCSDECKKKNKVVAMCDYCKLQKIIKETVRFSGVDKPFCSEVCKFLSA [Y36C] | -0.187 ± 0.061
16 | KLKCQHCNHLFATKPELLFYKGKMFLFCGKNCSDEYKKKNKVVAMCDYCKLQKIIKETVRFSGVDKPFCSEVCKKLSA [F75K] | 0.533 ± 0.1
17 | KLKCQHCNHLFATKPELLFYKGKMFLFCGKNCSDEYWKKNKVVAMCDYCKLQKIIKETVRFSGVDKPFCSEVCKFLSA [K37W] | -0.099 ± 0.033
18 | KLKCQHCNHLFATKPELLFYKGKMFLFCGKNCSDEYGKKNKVVAMCDYCKLQKIIKETVRFSGVDKPFCSEVCKFLSA [K37G] | -0.027 ± 0.027

Row | Variant | abundance fitness
19 | KLKCQHCNHLFATKPELLFYKGKMFLFCGKNCSDEYKKKNKVVAMCDYCALQKIIKETVRFSGVDKPFCSEVCKFLSA [K50A] | -0.786 ± 0.16
20 | KLKCQHCNHLFATKPELLFYKGKMFLFCGKNCSDEYKKKNKVVAMCDYCDLQKIIKETVRFSGVDKPFCSEVCKFLSA [K50D] | -0.767 ± 0.37
21 | KLKCQHCNHLFATKPELLFYKGKMFLFCGKNCSDEYKKKNKVVAMCDYCMLQKIIKETVRFSGVDKPFCSEVCKFLSA [K50M] | -0.685 ± 0.27
22 | KLKCQHCNHLFATKPELLFYKGKMFLFCGKNCSDEYKKKNKVVAMCDYCCLQKIIKETVRFSGVDKPFCSEVCKFLSA [K50C] | -0.805 ± 0.19
23 | KLKCQHCNHLFATKPELLFYKGKMFLFCGKNCSDEYKKKNKVVAMCDYCKLQKIIKETVRFSGVDEPFCSEVCKFLSA [K66E] | 0.161 ± 0.16
24 | KLKCQHCNHLFATKPELLFYKGKMFLFCGKNCSDEYKKKNKVVAMCDYCKLQKIIKETVRFSGVDKPFCSENCKFLSA [V72N] | 0.64 ± 0.15
25 | KLKCQHCNHLFATKPELLFYKGKMFLFCGKNCSDEYKKKNKVVAWCDYCKLQKIIKETVRFSGVDKPFCSEVCKFLSA [M45W] | -0.842 ± 0.25
26 | KLKCQHCNHLFATKPELLFYKGKMFLFCGKNCSDEYKKKNKVVARCDYCKLQKIIKETVRFSGVDKPFCSEVCKFLSA [M45R] | -0.062 ± 0.073
27 | KLKCQHCNHLFATKPELLFYKGKMFLFCGKNCSDEYKKLNKVVAMCDYCKLQKIIKETVRFSGVDKPFCSEVCKFLSA [K39L] | -0.107 ± 0.052
28 | KLKCQHCNHLFATKPELLFYKGKMFLFCGKNCSDEYKKTNKVVAMCDYCKLQKIIKETVRFSGVDKPFCSEVCKFLSA [K39T] | -0.058 ± 0.057
29 | KLKCQHCNHLFATKPELLFYKGKMFLFCGKNCSDEYKKYNKVVAMCDYCKLQKIIKETVRFSGVDKPFCSEVCKFLSA [K39Y] | 0.024 ± 0.25
30 | KLKCQHCNHLFATKPELLFYKGKMFLFCGKNCSDEYKKWNKVVAMCDYCKLQKIIKETVRFSGVDKPFCSEVCKFLSA [K39W] | -0.099 ± 0.036
31 | KLKCQHCNHLFATKPELLFYKGKMFLFCGKNCSDEYKKKNKVVAMCDYCKLPKIIKETVRFSGVDKPFCSEVCKFLSA [Q52P] | 0.108 ± 0.22
32 | KLKCQHCNHLFATKPELLFYKGKMFLFCGKNCSDEYKKKNKVVAMCDYCKLQKIIKETVRFSGVDKPFCSEVCKFLVA [S77V] | -0.857 ± 0.24
33 | KLKCQHCNHLFATKPELLFYKGKMWLFCGKNCSDEYKKKNKVVAMCDYCKLQKIIKETVRFSGVDKPFCSEVCKFLSA [F25W] | -0.027 ± 0.035
34 | KLKCQHCNHLFATKPELLFYKGKMFLFCGKNCSDEYKKKNKVVAMCDYCKLQKIILETVRFSGVDKPFCSEVCKFLSA [K56L] | -0.382 ± 0.16
35 | KLKCLHCNHLFATKPELLFYKGKMFLFCGKNCSDEYKKKNKVVAMCDYCKLQKIIKETVRFSGVDKPFCSEVCKFLSA [Q5L] | -0.118 ± 0.039
